Data: article PMC4394351

Molecular target: GFP-tagged human PPP1R15A (GFP-hR15A) (human) (UniProt O75807)
Test: co-IP; as a5, then three washes in GFP-Trap lysis buffer with additional NaCl; 350 mM salt

Sequence of UniProt O75807 (O75807 whole entry): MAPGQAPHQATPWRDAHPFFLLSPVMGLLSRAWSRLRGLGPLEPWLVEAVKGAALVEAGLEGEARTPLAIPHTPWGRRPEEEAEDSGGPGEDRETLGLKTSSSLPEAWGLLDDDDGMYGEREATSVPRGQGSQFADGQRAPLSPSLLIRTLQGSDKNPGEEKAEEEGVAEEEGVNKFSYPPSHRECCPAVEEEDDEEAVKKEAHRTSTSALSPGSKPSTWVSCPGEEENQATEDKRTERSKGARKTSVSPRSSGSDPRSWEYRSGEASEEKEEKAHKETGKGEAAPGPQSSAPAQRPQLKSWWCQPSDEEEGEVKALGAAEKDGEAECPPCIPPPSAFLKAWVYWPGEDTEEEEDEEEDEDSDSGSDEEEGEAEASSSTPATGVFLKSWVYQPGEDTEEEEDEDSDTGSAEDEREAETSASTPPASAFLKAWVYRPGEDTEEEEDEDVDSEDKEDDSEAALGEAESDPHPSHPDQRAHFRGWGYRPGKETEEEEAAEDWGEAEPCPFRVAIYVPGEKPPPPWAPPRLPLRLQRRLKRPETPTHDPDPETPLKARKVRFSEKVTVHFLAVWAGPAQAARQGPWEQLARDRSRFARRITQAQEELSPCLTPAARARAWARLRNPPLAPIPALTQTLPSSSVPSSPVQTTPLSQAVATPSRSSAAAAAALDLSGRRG

percent of the actin bound at 150 mM salt that was lost at 350 mM: 75%
Substance: actin (endogenous, HEK293T cells) (from UniProt P60709 1-375) (natural protein)
